Experimental data taken from IntAct's records for PubMed 22340593.

B1: Tumor protein p73 (Homo sapiens), O15350 (parent)
chain: MAQSTATSPDGGTTFEHLWSSLEPDSTYFDLPQSSRGNNEVVGGTDSSMDVFHLEGMTTSVMAQFNLLSSTMDQMSSRAASASPYTPEHAASVPTHSPYAQPSSTFDTMSPAPVIPSNTDYPGPHHFEVTFQQSSTAKSATWTYSPLLKKLYCQIAKTCPIQIKVSTPPPPGTAIRAMPVYKKAEHVTDVVKRCPNHELGRDFNEGQSAPASHLIRVEGNNLSQYVDDPVTGRQSVVVPYEPPQVGTEFTTILYNFMCNSSCVGGMNRRPILIIITLEMRDGQVLGRRSFEGRICACPGRDRKADEDHYREQQALNESSAKNGAASKRAFKQSPPAVPALGAGVKKRRHGDEDTYYLQVRGRENFEILMKLKESLELMELVPQPLVDSYRQQQQLLQRPSHLQPPSYGPVLSPMNKVHGGMNKLPSVNQLVGQPPPHSSAATPNLGPVGPGMLNNHGHAVPANGEMSSSHSAQSMVSGSHCTPPPPYHADPSLVSFLTGLGCPNCIEYFTSQGLQSIYHLQNLTIEDLGALKIPEQYRMTIWRGLQDLKQGHDYSTAQQLLRSSNAATISIGGSGELQRQRVMEAVHFRVRHTITIPNRGGPGGGPDEWADFGFDLPDCKARKQPIKEEFTEAEIH
B2: Tumor protein p73 (Homo sapiens), O15350 (parent)
chain: B1 chain
partner: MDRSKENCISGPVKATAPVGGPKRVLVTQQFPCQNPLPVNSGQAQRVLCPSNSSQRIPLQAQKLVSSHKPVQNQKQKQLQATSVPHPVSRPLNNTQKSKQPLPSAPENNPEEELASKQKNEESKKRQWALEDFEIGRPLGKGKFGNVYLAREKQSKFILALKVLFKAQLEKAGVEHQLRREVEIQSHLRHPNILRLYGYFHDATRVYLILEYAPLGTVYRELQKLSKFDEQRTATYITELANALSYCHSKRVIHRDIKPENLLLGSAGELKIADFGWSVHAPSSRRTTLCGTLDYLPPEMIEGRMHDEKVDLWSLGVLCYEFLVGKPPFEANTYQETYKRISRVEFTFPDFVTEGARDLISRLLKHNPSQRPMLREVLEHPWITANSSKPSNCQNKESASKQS

Variants of: B1
Conditions: with hspa9_human HSPA9, P38646
Sequence of hspa9_human HSPA9, P38646 (P38646 whole entry): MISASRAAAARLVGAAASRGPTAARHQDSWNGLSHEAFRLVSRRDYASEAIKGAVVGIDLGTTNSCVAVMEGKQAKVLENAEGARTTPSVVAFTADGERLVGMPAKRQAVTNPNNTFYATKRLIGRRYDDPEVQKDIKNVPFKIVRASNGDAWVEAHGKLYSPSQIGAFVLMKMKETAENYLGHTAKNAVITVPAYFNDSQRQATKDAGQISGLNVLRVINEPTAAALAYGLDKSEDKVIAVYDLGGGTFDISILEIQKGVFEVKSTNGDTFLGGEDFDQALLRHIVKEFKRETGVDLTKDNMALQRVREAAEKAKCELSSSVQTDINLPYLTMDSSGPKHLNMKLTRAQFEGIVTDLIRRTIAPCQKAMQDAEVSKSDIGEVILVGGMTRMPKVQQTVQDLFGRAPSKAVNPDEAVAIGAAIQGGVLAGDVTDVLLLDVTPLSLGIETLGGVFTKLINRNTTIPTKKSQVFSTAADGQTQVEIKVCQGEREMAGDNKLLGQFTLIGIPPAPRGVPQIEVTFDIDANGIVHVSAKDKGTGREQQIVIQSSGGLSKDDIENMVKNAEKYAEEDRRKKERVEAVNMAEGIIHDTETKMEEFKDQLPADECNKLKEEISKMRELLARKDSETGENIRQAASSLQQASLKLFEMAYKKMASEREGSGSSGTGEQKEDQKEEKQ

effect of a mutation on the interaction	Variant
increasing interaction strength	S235D

Variants of: B2
Conditions: with aurka_human AURKA

effect of a mutation on the interaction	Variant
increasing interaction strength	S235D
